In publication PMC9890227:

Key:
Assay in all cases: EMSA
MutLbeta (MLH1-PMS1) = MutLbeta (MLH1-PMS1) (Homo sapiens, UniProt P40692;P54277 1-756;1-932)
MutLgamma (MLH1-MLH3) = MutLgamma (MLH1-MLH3) (Homo sapiens, UniProt P40692;Q9UHC1 1-756;1-1453)
MutSbeta (MSH2-MSH3) = MutSbeta (MSH2-MSH3) (Homo sapiens, UniProt P43246;P20585 1-934;1-1137)

Measured: binding result

Chain of MutLbeta (MLH1-PMS1) (P40692 whole entry, chain 1 of 2): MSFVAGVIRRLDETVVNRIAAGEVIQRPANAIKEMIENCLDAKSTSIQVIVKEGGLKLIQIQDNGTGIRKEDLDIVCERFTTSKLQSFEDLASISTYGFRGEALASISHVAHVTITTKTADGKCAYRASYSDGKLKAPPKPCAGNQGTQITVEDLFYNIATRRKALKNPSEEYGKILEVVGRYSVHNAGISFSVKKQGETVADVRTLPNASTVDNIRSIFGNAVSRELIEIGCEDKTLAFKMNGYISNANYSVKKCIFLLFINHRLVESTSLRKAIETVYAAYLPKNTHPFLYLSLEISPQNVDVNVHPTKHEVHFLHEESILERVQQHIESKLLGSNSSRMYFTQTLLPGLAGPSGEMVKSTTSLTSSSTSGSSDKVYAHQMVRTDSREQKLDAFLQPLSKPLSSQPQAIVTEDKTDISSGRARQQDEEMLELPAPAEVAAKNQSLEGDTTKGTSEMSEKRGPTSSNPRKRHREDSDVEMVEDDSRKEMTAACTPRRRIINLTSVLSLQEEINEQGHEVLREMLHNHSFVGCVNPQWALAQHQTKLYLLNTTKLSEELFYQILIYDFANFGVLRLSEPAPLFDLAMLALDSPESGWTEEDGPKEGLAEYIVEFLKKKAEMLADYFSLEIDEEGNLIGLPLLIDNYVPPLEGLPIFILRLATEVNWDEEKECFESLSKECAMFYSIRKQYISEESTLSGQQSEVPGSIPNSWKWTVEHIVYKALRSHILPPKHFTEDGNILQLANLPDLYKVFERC
Chain of MutLbeta (MLH1-PMS1) (P54277 whole entry, chain 2 of 2): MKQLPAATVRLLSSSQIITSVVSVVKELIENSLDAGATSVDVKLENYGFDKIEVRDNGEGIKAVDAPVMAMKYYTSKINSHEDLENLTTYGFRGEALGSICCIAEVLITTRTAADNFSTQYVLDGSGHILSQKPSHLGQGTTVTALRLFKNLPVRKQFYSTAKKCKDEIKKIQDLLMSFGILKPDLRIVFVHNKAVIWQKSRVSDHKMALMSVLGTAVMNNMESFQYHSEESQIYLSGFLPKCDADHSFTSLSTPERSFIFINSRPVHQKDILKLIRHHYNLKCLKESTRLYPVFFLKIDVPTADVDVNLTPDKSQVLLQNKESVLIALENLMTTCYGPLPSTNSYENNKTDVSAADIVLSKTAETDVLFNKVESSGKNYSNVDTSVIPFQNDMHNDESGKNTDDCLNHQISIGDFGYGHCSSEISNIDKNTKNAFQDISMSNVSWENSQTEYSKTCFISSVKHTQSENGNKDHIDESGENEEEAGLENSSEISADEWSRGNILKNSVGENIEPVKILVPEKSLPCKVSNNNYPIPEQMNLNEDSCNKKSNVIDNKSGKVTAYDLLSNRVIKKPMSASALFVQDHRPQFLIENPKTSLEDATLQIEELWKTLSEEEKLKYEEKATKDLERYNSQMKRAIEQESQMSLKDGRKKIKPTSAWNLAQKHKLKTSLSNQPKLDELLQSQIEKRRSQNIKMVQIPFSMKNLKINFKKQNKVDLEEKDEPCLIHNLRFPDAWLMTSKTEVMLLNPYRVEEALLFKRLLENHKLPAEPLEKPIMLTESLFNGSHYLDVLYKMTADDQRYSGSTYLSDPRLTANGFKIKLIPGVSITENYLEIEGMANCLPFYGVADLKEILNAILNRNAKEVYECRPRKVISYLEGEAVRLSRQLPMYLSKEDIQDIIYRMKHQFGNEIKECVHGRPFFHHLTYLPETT
Chain of MutLgamma (MLH1-MLH3) (P40692 whole entry, chain 1 of 2): as the sequence (P40692 whole entry, chain 1 of 2) above
Chain of MutLgamma (MLH1-MLH3) (Q9UHC1 whole entry, chain 2 of 2): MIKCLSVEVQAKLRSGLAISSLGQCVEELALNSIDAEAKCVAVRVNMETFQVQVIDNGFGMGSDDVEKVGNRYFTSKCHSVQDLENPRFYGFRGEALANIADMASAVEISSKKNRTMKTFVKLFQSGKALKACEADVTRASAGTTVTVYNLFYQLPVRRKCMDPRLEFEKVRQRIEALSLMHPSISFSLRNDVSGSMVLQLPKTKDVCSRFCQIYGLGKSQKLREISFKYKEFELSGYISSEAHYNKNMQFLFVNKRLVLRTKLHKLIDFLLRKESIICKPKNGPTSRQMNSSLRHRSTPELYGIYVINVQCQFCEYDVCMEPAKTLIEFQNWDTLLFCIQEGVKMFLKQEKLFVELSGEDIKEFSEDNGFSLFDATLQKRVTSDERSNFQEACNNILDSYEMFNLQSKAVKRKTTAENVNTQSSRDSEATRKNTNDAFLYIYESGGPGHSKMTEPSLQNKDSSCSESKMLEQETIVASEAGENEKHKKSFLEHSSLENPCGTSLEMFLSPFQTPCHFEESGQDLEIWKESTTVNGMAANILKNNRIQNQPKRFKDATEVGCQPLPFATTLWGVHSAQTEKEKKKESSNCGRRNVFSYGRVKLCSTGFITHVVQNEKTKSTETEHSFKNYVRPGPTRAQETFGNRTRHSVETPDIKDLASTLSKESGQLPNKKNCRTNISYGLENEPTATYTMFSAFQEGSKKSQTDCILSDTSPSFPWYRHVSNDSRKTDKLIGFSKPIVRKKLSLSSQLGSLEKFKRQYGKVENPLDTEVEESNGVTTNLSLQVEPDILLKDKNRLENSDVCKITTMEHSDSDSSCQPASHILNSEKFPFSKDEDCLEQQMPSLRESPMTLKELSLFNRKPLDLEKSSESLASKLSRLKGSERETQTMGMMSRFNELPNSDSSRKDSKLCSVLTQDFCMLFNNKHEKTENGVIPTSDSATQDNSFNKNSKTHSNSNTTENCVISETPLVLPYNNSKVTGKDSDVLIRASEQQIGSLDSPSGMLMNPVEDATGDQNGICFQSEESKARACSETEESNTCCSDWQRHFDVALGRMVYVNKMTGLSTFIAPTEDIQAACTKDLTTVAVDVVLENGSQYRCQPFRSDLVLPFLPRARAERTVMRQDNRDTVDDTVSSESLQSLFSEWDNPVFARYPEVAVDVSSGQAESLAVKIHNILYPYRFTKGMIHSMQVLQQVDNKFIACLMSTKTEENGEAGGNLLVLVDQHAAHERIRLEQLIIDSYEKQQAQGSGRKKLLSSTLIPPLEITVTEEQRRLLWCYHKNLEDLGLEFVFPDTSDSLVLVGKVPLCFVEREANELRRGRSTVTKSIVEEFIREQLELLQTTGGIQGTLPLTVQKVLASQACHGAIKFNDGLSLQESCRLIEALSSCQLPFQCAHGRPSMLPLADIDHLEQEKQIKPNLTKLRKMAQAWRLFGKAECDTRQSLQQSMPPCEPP

B1: Holliday junction (PC1253/PC1254/PC1255/PC1256) (structured_DNA)
DNA 1: TGGGTCAACGTGGGCAAAGATGTCCTAGCAATGTAATCGTCTATGACGTT
DNA 2: TGCCGAATTCTACCAGTGCCAGTGATGGACATCTTTGCCCACGTTGACCC
DNA 3: GTCGGATCCTCTAGACAGCTCCATGATCACTGGCACTGGTAGAATTCGGC
DNA 4: CAACGTCACAGACGATTACATTGCTACATGGAGCTGTCTAGAGGATCCGA
binds: all assays above
